Reference: publication PMC5722895

Assays:
Conditions in all cases: remark: other sources report otherwise
[1] = biological target: T1, Trigger Factor (TF), full length, residues 1-432 (E. coli), P0A850; assay: SEC-MALS; concentration series of full-length TF and full-length mutants alone, 26 °C, sample buffer (20 mM K-phosphate pH 6.5, 100 mM KCl, 0.5 mM EDTA); fit to a fast monomer-dimer equilibrium; dimer to monomers
T1 chain: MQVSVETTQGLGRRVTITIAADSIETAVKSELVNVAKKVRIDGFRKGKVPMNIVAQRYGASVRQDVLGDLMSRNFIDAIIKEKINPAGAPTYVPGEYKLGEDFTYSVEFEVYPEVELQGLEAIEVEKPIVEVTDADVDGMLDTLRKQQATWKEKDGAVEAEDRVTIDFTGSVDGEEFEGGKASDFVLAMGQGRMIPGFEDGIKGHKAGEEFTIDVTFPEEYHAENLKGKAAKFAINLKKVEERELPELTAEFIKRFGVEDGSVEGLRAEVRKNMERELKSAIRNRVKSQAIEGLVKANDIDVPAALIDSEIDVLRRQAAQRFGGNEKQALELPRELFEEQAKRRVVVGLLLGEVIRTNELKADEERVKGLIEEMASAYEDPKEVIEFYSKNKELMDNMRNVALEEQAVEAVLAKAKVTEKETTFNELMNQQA

[2] = biological target: T2, Trigger Factor (TF), full length, residues 1–432 (E. coli), P0A850; assay: SEC-MALS; as a2 but 250 mM KCl; dimer to monomers
T2 chain: T1 chain

[3] = biological target: T2, Trigger Factor (TF), full length, …; assay: SEC-MALS; as a2 but 500 mM KCl; dimer to monomers
[4] = biological target: T2, Trigger Factor (TF), full length, …; assay: SEC-MALS; sample buffer (20 mM K-phosphate pH 6.5, 100 mM KCl, 0.5 mM EDTA); 6 °C for the individual domains; concentration series fitted to a fast monomer–dimer equilibrium; dimer to monomers
[5] = biological target: T2, Trigger Factor (TF), full length, …; assay: AUC; sedimentation equilibrium, 6 °C, 100 mM KCl (sample buffer: 20 mM K-phosphate pH 6.5, 100 mM KCl, 0.5 mM EDTA); 12 μM TF, 48 and 135 μM RBD–SBD; global fit to a monomer–dimer model; dimer to monomers
[6] = biological target: T2, Trigger Factor (TF), full length, …; assay: real-time NMR spin-label exchange (intermolecular PRE); 15 °C; 100 µM [U-2H,15N] TF mixed with 100 μM OXYL-1-NHS-labeled TF in sample buffer; decay of the 15N-filtered signal fitted to the lifetime of the dimer
[7] = biological target: T2, Trigger Factor (TF), full length, …; assay: real-time NMR spin-label exchange (intermolecular PRE); 35 °C; 100 µM [U-2H,15N] TF mixed with 100 μM OXYL-1-NHS-labeled TF in sample buffer; decay of the 15N-filtered signal fitted to the lifetime of the dimer

B1: Trigger Factor (TF), full length, residues 1-432, P0A850 1-432 (natural protein)
chain: T1 chain
Work on B1 yielded a Kd [1] of 1.1 µM.

B2: Trigger Factor (TF), full length, residues 1–432, P0A850 1-432 (natural protein)
chain: T1 chain
With B2 the Kd [2] was 9 µM, the Kd [3] was 30 µM and the Kd [4] was 1.7 µM. It also gave a stoichiometry N [4] of 2, a Kd [5] of 3.3 µM and a lifetime of the dimer [6] of 15.8 min. The lifetime of the dimer [7] was 2.6 min.
